Test results taken from US20220175781A1, “CD40L COMPOSITIONS AND METHODS FOR TUNABLE REGULATION” (Obsidian Therapeutics, Inc., priority 2019, published 2022).

Experiments:
[1] = biological target: OT-001668 (Linker (MH); CD40L (aa 1-261 of WT, (S110-G116) del); stop) (human) (UniProt P29965); test: cell-based or functional assay
[2] = biological target: OT-001661 (MH Linker; CD40L; stop) (human) (UniProt P29965); test: cell-based or functional assay
[3] = biological target: OT-001669 (Linker (MH); CD40L (aa 14-261 of WT); stop) (human) (UniProt P29965); test: cell-based or functional assay
HEK-Blue CD40 = HEK-Blue CD40 assay with sCD40L constructs; type: cell-based; conditions: ligand treated
HEK293T cells = test: Soluble CD40L ELISA, transiently transfected HEK293T cells; type: cell-based, human; conditions: HEK293T cells
Description: Soluble CD40L (sCD40L) constructs OT-001672, OT-001686, OT-001673, OT-001674, OT-001677, and OT-001684 were transiently transfected into HEK293T cells. Cells were treated with one of the following ligands 1 μM Shield-1, 50 μM TMP, 1 μM Bazedoxifene (BZD) or vehicle control.
The pg/mL levels of soluble CD40L were measured by ELISA (Table 14). Recombinant soluble CD40L was used as the standard in the experiments.

[4] = tested on: T cells (CD4 and CD8 positive); test: TMP dose response of OT-001962, CD40L MFI in CD4 and CD8 positive T cells; type: cell-based
Description: Dose response with TMP in T cells were conducted for OT-001962. Expression of CD40L was measured at (a) day 4 after transduction, (b) after freezing and thawing the cells or (c) after freezing and thawing the cells followed by restimulation with CD3/CD28 beads.

HEK 293T cells = test: hDHFR regulated CD40L surface expression, HEK 293T cells (flow cytometry); type: cell-based, human; conditions: 50 μM TMP 24 hours
Description: HEK 293T cells were transiently […] with hDHFR regulated constructs namely OT-001962, OT-001961, OT-001963 for 24 hours. Following transfection, cells were treated with 50 μM TMP for 24 hours and CD40L cell surface expression was measured using flow cytometry. […] CD40L expression in the absence of ligand was virtually undetectable.

Jurkat cells = test: DHFR regulated CD40L expression, transduced Jurkat cells (flow cytometry); type: cell-based
Description: Jurkat cells were transduced with lentiviruses corresponding to OT-001662, OT-001962, OT-001961, OT-001963. 24 hours after transduction, cells were split and treated with DMSO or 50 μM TMP for another 24 hours until flow cytometry-based analysis. The results are shown in Table 37 where SR indicates stabilization ration.

T cells (CD4+ and CD8+) = test: Regulation of CD40L in T cells by different drug responsive domains; type: cell-based
CD40 = CD40 (UniProt P25942); test: cell-based or functional assay
Chain of CD40 (P25942 21-277 limits assumed): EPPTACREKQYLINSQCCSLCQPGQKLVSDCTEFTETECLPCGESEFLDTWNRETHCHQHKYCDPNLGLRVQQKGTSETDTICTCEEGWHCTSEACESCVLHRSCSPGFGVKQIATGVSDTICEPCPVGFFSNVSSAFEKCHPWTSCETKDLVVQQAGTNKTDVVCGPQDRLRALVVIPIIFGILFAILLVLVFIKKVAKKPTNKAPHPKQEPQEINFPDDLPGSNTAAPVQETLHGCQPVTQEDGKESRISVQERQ

HEK-Blue™ CD40 cells = test: HEK-Blue CD40 SEAP reporter co-culture with transduced Jurkat cells; type: cell-based; conditions: ligand 24 h (1 μM Shield-1, 50 μM TMP or 1 μM Bazedoxifene), recombinant soluble CD40L as standard
Description: Jurkat cells transduced with OT-001661, OT-001685, OT-001662, OT-001666, or OT-001667 were co-cultured with HEK-Blue™ CD40 cells (Invivogen, San Diego, Calif.). Cocultures were treated with ligands (1 μM Shield-1, 50 μM TMP, 1 μM Bazedoxifene (BZD) or vehicle control) for 24 hours and the secreted embryonic alkaline phosphatase (SEAP) reporter levels were measured in the media. All vehicle treated samples had background SEAP activity. Recombinant soluble CD40L was used as the standard in the experiments.

## recombinant human CD40-Fc receptor (from UniProt P25942 21-193) (Fc fusion)
[1]
  CD40L levels in supernatant (shedding, ELISA) of Jurkat cells cultured 6 hours with 1.25 µg/ml hCD40-Fc; untreated 10: 10
[2]
  CD40L levels in supernatant (shedding, ELISA) of Jurkat cells cultured 6 hours with 1.25 µg/ml hCD40-Fc; untreated 1382.06: 3600
[3]
  CD40L levels in supernatant (shedding, ELISA) of Jurkat cells cultured 6 hours with 1.25 µg/ml hCD40-Fc; untreated 2137.69: 8440

B1: OT-001672: Soluble CD40L (sCD40L) construct (protein)
chain: GSMHMQKGDQNPQIAAHVISEASSKTTSVLQWAEKGYYTMSNNLVTLENGKQLTVKRQGLYYIYAQVTFCSNREASSQAPFIASLCLKSPGRFERILLRAANTHSSAKPCGQQSIHLGGVFELQPGASVFVNVTDPSQVSHGTGFTSFGLLKL
HEK-Blue CD40
  functionality in HEK-Blue CD40 assay: higher functionality
HEK293T cells; soluble CD40L +Ligand versus Vehicle
  Stabilization Ratio: 3.3

B2: OT-001962: hDHFR regulated CD40L construct (protein)
chain: MVGSLNCIVAVSQNMGIGKNGDLPWPPLRNEFRYFERMTTTSSVEGKQNLVIMGKKTWFSIPEKNRPLKGRINLVLSRELKEPPQGAHFLSRSLDDALKLTEHPELANKVDMVWIVGGSSVIKEAMNHPGHLKLFVTRIMQDFESDTFFPEIDLEKYKLLPEYPGVLSDVQEEKGIKYKFEVYEKNDHMIETYNQTSPRSAATGLPISMKIFMYLLTVFLITQMIGSALFAVYLHRRLDKIEDERNLHEDFVFMKTIQRCNTGERSLSLLNCEEIKSQFEGFVKDIMLNKEETKKENSFEMQKGDQNPQIAAHVISEASSKTTSVLQWAEKGYYTMSNNLVTLENGKQLTVKRQGLYYIYAQVTFCSNREASSQAPFIASLCLKSPGRFERILLRAANTHSSAKPCGQQSIHLGGVFELQPGASVFVNVTDPSQVSHGTGFTSFGLLKL
[4]; CD4+, Day 4, TMP 0.1 nM
  CD40L expression (MFI): 388
[4]; CD4+, Day 4, TMP 1 nM
  CD40L expression (MFI): 396
[4]; CD4+, Day 4, TMP 10 nM
  CD40L expression (MFI): 405
[4]; CD4+, Day 4, TMP 100 nM
  CD40L expression (MFI): 388
[4]; CD4+, Day 4, TMP 1000 nM
  CD40L expression (MFI): 480
[4]; CD4+, Day 4, TMP 10000 nM
  CD40L expression (MFI): 1067
[4]; CD4+, Day 4, TMP 100000 nM
  CD40L expression (MFI): 5917
[4]; CD4+, Post Thaw, TMP 0.1 nM
  CD40L expression (MFI): 153
[4]; CD4+, Post Thaw, TMP 1 nM
  CD40L expression (MFI): 156
[4]; CD4+, Post Thaw, TMP 10 nM
  CD40L expression (MFI): 158
[4]; CD4+, Post Thaw, TMP 100 nM
  CD40L expression (MFI): 165
[4]; CD4+, Post Thaw, TMP 1000 nM
  CD40L expression (MFI): 166
[4]; CD4+, Post Thaw, TMP 10000 nM
  CD40L expression (MFI): 186
[4]; CD4+, Post Thaw, TMP 100000 nM
  CD40L expression (MFI): 395
[4]; CD4+, Restim, TMP 0.1 nM
  CD40L expression (MFI): 631
[4]; CD4+, Restim, TMP 1 nM
  CD40L expression (MFI): 647
[4]; CD4+, Restim, TMP 10 nM
  CD40L expression (MFI): 645
[4]; CD4+, Restim, TMP 100 nM
  CD40L expression (MFI): 644
[4]; CD4+, Restim, TMP 1000 nM
  CD40L expression (MFI): 737
[4]; CD4+, Restim, TMP 10000 nM
  CD40L expression (MFI): 1382
[4]; CD4+, Restim, TMP 100000 nM
  CD40L expression (MFI): 6275
[4]; CD8+, Day 4, TMP 0.1 nM
  CD40L expression (MFI): 181
[4]; CD8+, Day 4, TMP 1 nM
  CD40L expression (MFI): 178
[4]; CD8+, Day 4, TMP 10 nM
  CD40L expression (MFI): 182
[4]; CD8+, Day 4, TMP 100 nM
  CD40L expression (MFI): 182
[4]; CD8+, Day 4, TMP 1000 nM
  CD40L expression (MFI): 204
[4]; CD8+, Day 4, TMP 10000 nM
  CD40L expression (MFI): 393
[4]; CD8+, Day 4, TMP 100000 nM
  CD40L expression (MFI): 1941
[4]; CD8+, Post Thaw, TMP 0.1 nM
  CD40L expression (MFI): 111
[4]; CD8+, Post Thaw, TMP 1 nM
  CD40L expression (MFI): 116
[4]; CD8+, Post Thaw, TMP 10 nM
  CD40L expression (MFI): 114
[4]; CD8+, Post Thaw, TMP 100 nM
  CD40L expression (MFI): 117
[4]; CD8+, Post Thaw, TMP 1000 nM
  CD40L expression (MFI): 118
[4]; CD8+, Post Thaw, TMP 10000 nM
  CD40L expression (MFI): 129
[4]; CD8+, Post Thaw, TMP 100000 nM
  CD40L expression (MFI): 236
[4]; CD8+, Restim, TMP 0.1 nM
  CD40L expression (MFI): 254
[4]; CD8+, Restim, TMP 1 nM
  CD40L expression (MFI): 257
[4]; CD8+, Restim, TMP 10 nM
  CD40L expression (MFI): 258
[4]; CD8+, Restim, TMP 100 nM
  CD40L expression (MFI): 255
[4]; CD8+, Restim, TMP 1000 nM
  CD40L expression (MFI): 258
[4]; CD8+, Restim, TMP 10000 nM
  CD40L expression (MFI): 382
[4]; CD8+, Restim, TMP 100000 nM
  CD40L expression (MFI): 1185
HEK 293T cells
  % CD40L: 14.3%
Jurkat cells; 50 μM TMP versus DMSO
  stabilization ratio, ranking among the hDHFR constructs: highest stabilization ratio
Jurkat cells; 50 μM TMP versus DMSO 24 hours
  TMP dependent regulation: strong TMP dependent regulation
Jurkat cells; TMP (50 μM)
  % CD40L expression: 50%
Jurkat cells; TMP (50 μM) versus Vehicle
  SR: 16.7
Jurkat cells; Vehicle (DMSO)
  % CD40L expression: 3%
T cells (CD4+ and CD8+); All Cells, 100 uM TMP
  CD40L positive: 71.6%
  MFI: 1109
T cells (CD4+ and CD8+); All Cells, DMSO
  CD40L positive: 46.5%
  MFI: 434
T cells (CD4+ and CD8+); CD4+, 100 uM TMP
  CD40L positive: 83.5%
  MFI: 1468
T cells (CD4+ and CD8+); CD4+, DMSO
  CD40L positive: 58.3%
  MFI: 548
T cells (CD4+ and CD8+); CD8+, 100 uM TMP
  CD40L positive: 32.1%
  MFI: 455
T cells (CD4+ and CD8+); CD8+, DMSO
  CD40L positive: 4.1%
  MFI: 157

B3: OT-001667 (Met; ER (aa 305-549 of WT, T371A, L384M, M421G, N519S, G521R, Y537S); Histidine; CD40L; stop) (ligand)
chain: MSLALSLTADQMVSALLDAEPPILYSEYDPTRPFSEASMMGLLTNLADRELVHMINWAKRVPGFVDLALHDQVHLLECAWMEILMIGLVWRSMEHPGKLLFAPNLLLDRNQGKCVEGGVEIFDMLLATSSRFRMMNLQGEEFVCLKSIILLNSGVYTFLSSTLKSLEEKDHIHRVLDKITDTLIHLMAKAGLTLQQQHQRLAQLLLILSHIRHMSSKRMEHLYSMKCKNVVPLSDLLLEMLDAHRLHMIETYNQTSPRSAATGLPISMKIFMYLLTVFLITQMIGSALFAVYLHRRLDKIEDERNLHEDFVFMKTIQRCNTGERSLSLLNCEEIKSQFEGFVKDIMLNKEETKKENSFEMQKGDQNPQIAAHVISEASSKTTSVLQWAEKGYYTMSNNLVTLENGKQLTVKRQGLYYIYAQVTFCSNREASSQAPFIASLCLKSPGRFERILLRAANTHSSAKPCGQQSIHLGGVFELQPGASVFVNVTDPSQVSHGTGFTSFGLLKL
CD40
  SEAP reporter of HEK-Blue CD40 cells co-cultured 24 hours with transduced Jurkat cells plus 1 µM Bazedoxifene, given as Soluble CD40L (pg/ml) against a recombinant soluble CD40L standard: 2570 pg/mL
HEK-Blue™ CD40 cells
  Soluble CD40L: 2565.91 pg/mL

B4: OT-001673: Soluble CD40L (sCD40L) construct (protein)
chain: GSSGISLIAALAVDYVIGMENAMPWNLPADLAWFKRNTLNKPVIMGRHTWESIGRPLPGRKNIILSSQPGTDDRVTWVKSVDEAIAACGDVPEIMVIGGGRVIEQFLPKAQKLYLTHIDAEVEGDTHFPDYEPDDWESVFSEFHDADAQNSHSYCFEILERRGSMHMQKGDQNPQIAAHVISEASSKTTSVLQWAEKGYYTMSNNLVTLENGKQLTVKRQGLYYIYAQVTFCSNREASSQAPFIASLCLKSPGRFERILLRAANTHSSAKPCGQQSIHLGGVFELQPGASVFVNVTDPSQVSHGTGFTSFGLLKL
HEK-Blue CD40
  functionality in HEK-Blue CD40 assay: higher functionality
HEK293T cells; ELISA
  ligand dependent regulation of soluble CD40L levels: ligand dependent regulation
